Target: T1, recombinant human Periostin (human, UniProt Q15063 22-836)
T1 construct: Periostin, human, recombinant; source: bought: Sino Biological
T1 sequence (looked up): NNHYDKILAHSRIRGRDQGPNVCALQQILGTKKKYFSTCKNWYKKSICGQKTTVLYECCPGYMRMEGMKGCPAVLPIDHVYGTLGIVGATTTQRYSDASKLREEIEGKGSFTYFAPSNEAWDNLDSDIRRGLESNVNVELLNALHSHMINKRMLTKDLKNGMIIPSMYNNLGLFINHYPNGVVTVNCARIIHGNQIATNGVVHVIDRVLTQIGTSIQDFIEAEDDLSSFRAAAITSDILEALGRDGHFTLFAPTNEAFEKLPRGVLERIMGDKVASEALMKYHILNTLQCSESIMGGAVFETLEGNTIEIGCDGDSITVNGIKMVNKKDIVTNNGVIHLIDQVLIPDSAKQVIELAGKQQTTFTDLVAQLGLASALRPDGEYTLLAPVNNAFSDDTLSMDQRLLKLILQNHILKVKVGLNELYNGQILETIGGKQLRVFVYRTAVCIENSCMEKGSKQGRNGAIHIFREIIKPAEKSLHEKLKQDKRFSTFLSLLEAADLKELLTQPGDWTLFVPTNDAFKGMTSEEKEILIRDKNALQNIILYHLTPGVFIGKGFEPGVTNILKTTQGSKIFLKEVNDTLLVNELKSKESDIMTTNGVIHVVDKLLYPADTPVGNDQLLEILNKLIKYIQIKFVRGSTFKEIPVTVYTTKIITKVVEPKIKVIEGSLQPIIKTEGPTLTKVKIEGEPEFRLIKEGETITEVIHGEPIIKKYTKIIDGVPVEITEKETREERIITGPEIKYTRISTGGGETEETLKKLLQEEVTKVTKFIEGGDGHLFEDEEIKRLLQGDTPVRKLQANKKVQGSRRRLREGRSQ
Assay: SPR; Biacore 3000; NINJ2 extracellular domain immobilised by amine coupling on a carboxymethyldextran chip (CMD200M); periostin injected at 231, 116, 58, 29 and 14 nM, 30 µL/min, 2 min association, 5 min dissociation; HBS-T (10 mM HEPES, 150 mM NaCl, 0.005% Tween20) pH 7.4
Conditions: both partners purified

B1: extracellular domain (Met1-Thr65) of recombinant human NINJ2 (domain or fragment, UniProt Q9NZG7 1-65, looked up)
chain: MESARENIDLQPGSSDPRSQPINLNHYATKKSVAESMLDVALFMSNAMRLKAVLEQGPSSHYYTT
notes: Ninjurin-2 (NINJ2), human, extracellular domain, residues Met1-Thr65; also called NINJ2 extracellular domain; source: bought: R&D Systems
  Kd: 0.0169 µM

Reference: PMC12168268, “Targeted inhibition of Ninjurin2 promotes chemosensitivity in chemoresistant gastric cancer by suppressing cancer-initiating cells” (Biomarker Research, 2025)
